Assay results from patent publication US20170304355A1, “COMPOSITIONS AND METHODS OF USE THEREOF” (priority 2014, published 2017).

Tested on: IL-8
Assay: LPS stimulated IL-8 ELISA in U937 macrophages, PAAG and lactoferrin
Type: cell-based, human
Settings: 100 ng/ml lactoferrin pretreatment 1 hour, LPS stimulation; at 24 hours; FIG. 31

B1: lactoferrin: Lactoferrin, comparator pretreatment at 100 ng/ml (protein, UniProt P02788 20-710, looked up)
Lactotransferrin: GRRRSVQWCAVSQPEATKCFQWQRNMRKVRGPPVSCIKRDSPIQCIQAIAENRADAVTLDGGFIYEAGLAPYKLRPVAAEVYGTERQPRTHYYAVAVVKKGGSFQLNELQGLKSCHTGLRRTAGWNVPIGTLRPFLNWTGPPEPIEAAVARFFSASCVPGADKGQFPNLCRLCAGTGENKCAFSSQEPYFSYSGAFKCLRDGAGDVAFIRESTVFEDLSDEAERDEYELLCPDNTRKPVDKFKDCHLARVPSHAVVARSVNGKEDAIWNLLRQAQEKFGKDKSPKFQLFGSPSGQKDLLFKDSAIGFSRVPPRIDSGLYLGSGYFTAIQNLRKSEEEVAARRARVVWCAVGEQELRKCNQWSGLSEGSVTCSSASTTEDCIALVLKGEADAMSLDGGYVYTAGKCGLVPVLAENYKSQQSSDPDPNCVDRPVEGYLAVAVVRRSDTSLTWNSVKGKKSCHTAVDRTAGWNIPMGLLFNQTGSCKFDEYFSQSCAPGSDPRSNLCALCIGDEQGENKCVPNSNERYYGYTGAFRCLAENAGDVAFVKDVTVLQNTDGNNNEAWAKDLKLADFALLCLDGKRKPVTEARSCHLAMAPNHAVVSRMDKVERLKQVLLHQQAKFGRNGSDCPDKFCLFQSETKNLLFNDNTECLARLHGKTTYEKYLGPQYVAGITNLKKCSTSPLLEACEFLRK
- IL-8 secretion suppression: IL-8 secretion suppression
